Where a chain is given by its changes, count along the chain named. In names and notes the source's numbering stands.
B1: Fab VH5-51_IGHD5-18*01>3_IGHJ4*01 G100K/G104T G24T/S28R/G35V (H:KT TRV) & V3-4_IGLJ1*01 (Fab, V domains shown)
VH: EVQLVQSGAEVKKPGESLKISCKTSGYRFTSYWIVWVRQMPGKGLEWMGIIYPGDSDTRYSPSFQGQVTISADKSISTAYLQWSSLKASDTAMYYCARRKYSYTYDYFDYWGQGTLVTVSS
VL: QTVVTQEPSFSVSPGGTVTLTCGLSSGSVSTSYYPSWYQQTPGQAPRTLIYSTNTRSSGVPDRFSGSILGNKAALTITGAQADDESDYYCVLYMGSGISYVFGTGTKVTVL
notes: Fab with the parent (unmutated) light chain; expressed from plasmid A (CH1, His6 and Flag tags) and plasmid E (lambda CL); also called H:KT TRV & L:wt
B2: Fab VH5-51_IGHD5-18*01>3_IGHJ4*01 G100K/G104T G24T/S28R/G35V (H:KT TRV) & V3-4_IGLJ1*01 T55A (Fab, V domains shown)
VH: B1 VH
VL: B1 VL with T55A
notes: Fab; expressed from plasmid A (CH1, His6 and Flag tags) and plasmid E (lambda CL)
B3: Fab VH5-51_IGHD5-18*01>3_IGHJ4*01 G100K/G104T G24T/S28R/G35V (H:KT TRV) & V3-4_IGLJ1*01 V91H (Fab, V domains shown)
VH: B1 VH
VL: B1 VL with V91H
notes: as for B2
B4: Fab VH5-51_IGHD5-18*01>3_IGHJ4*01 G100K/G104T G24T/S28R/G35V (H:KT TRV) & V3-4_IGLJ1*01 M94F (Fab, V domains shown)
VH: B1 VH
VL: B1 VL with M94F
notes: as for B2
B5: Fab VH5-51_IGHD5-18*01>3_IGHJ4*01 G100K/G104T G24T/S28R/G35V (H:KT TRV) & V3-4_IGLJ1*01 M94V (Fab, V domains shown)
VH: B1 VH
VL: B1 VL with M94V
notes: as for B2
B6: Fab VH5-51_IGHD5-18*01>3_IGHJ4*01 G100K/G104T G24T/S28R/G35V (H:KT TRV) & V3-4_IGLJ1*01 V91I (Fab, V domains shown)
VH: B1 VH
VL: B1 VL with V91I
notes: as for B2
B7: Fab VH5-51_IGHD5-18*01>3_IGHJ4*01 G100K/G104T G24T/S28R/G35V (H:KT TRV) & V3-4_IGLJ1*01 M94T (Fab, V domains shown)
VH: B1 VH
VL: B1 VL with M94T
notes: as for B2
B8: Fab VH5-51_IGHD5-18*01>3_IGHJ4*01 G100K/G104T G24T/S28R/G35V (H:KT TRV) & V3-4_IGLJ1*01 S96G (Fab, V domains shown)
VH: B1 VH
VL: B1 VL with S96G
notes: as for B2
B9: Fab VH5-51_IGHD5-18*01>3_IGHJ4*01 G100K/G104T G24T/S28R/G35V (H:KT TRV) & V3-4_IGLJ1*01 V91N (Fab, V domains shown)
VH: B1 VH
VL: B1 VL with V91N
notes: as for B2
B10: Fab VH5-51_IGHD5-18*01>3_IGHJ4*01 G100K/G104T G24T/S28R/G35V (H:KT TRV) & V3-4_IGLJ1*01 M94G (Fab, V domains shown)
VH: B1 VH
VL: B1 VL with M94G
notes: as for B2
B11: Fab VH5-51_IGHD5-18*01>3_IGHJ4*01 G100K/G104T G24T/S28R/G35V (H:KT TRV) & V3-4_IGLJ1*01 V91C (Fab, V domains shown)
VH: B1 VH
VL: B1 VL with V91C
notes: as for B2
B12: Fab VH5-51_IGHD5-18*01>3_IGHJ4*01 G100K/G104T G24T/S28R/G35V (H:KT TRV) & V3-4_IGLJ1*01 M94L (Fab, V domains shown)
VH: B1 VH
VL: B1 VL with M94L
notes: as for B2
B13: Fab VH5-51_IGHD5-18*01>3_IGHJ4*01 G100K/G104T G24T/S28R/G35V (H:KT TRV) & V3-4_IGLJ1*01 V91E (Fab, V domains shown)
VH: B1 VH
VL: B1 VL with V91E
notes: as for B2
B14: Fab VH5-51_IGHD5-18*01>3_IGHJ4*01 G100K/G104T G24T/S28R/G35V (H:KT TRV) & V3-4_IGLJ1*01 M94D (Fab, V domains shown)
VH: B1 VH
VL: B1 VL with M94D
notes: as for B2
B15: Fab VH5-51_IGHD5-18*01>3_IGHJ4*01 G100K/G104T G24T/S28R/G35V (H:KT TRV) & V3-4_IGLJ1*01 N54A (Fab, V domains shown)
VH: B1 VH
VL: B1 VL with N54A
notes: as for B2
B16: Fab VH5-51_IGHD5-18*01>3_IGHJ4*01 G100K/G104T G24T/S28R/G35V (H:KT TRV) & V3-4_IGLJ1*01 S96W (Fab, V domains shown)
VH: B1 VH
VL: B1 VL with S96W
notes: as for B2
B17: Fab VH5-51_IGHD5-18*01>3_IGHJ4*01 G100K/G104T G24T/S28R/G35V (H:KT TRV) & V3-4_IGLJ1*01 V91P (Fab, V domains shown)
VH: B1 VH
VL: B1 VL with V91P
notes: as for B2
B18: Fab VH5-51_IGHD5-18*01>3_IGHJ4*01 G100K/G104T G24T/S28R/G35V (H:KT TRV) & V3-4_IGLJ1*01 M94R (Fab, V domains shown)
VH: B1 VH
VL: B1 VL with M94R
notes: as for B2
B19: Fab VH5-51_IGHD5-18*01>3_IGHJ4*01 G100K/G104T G24T/S28R/G35V (H:KT TRV) & V3-4_IGLJ1*01 V91L (Fab, V domains shown)
VH: B1 VH
VL: B1 VL with V91L
notes: as for B2
B20: Fab VH5-51_IGHD5-18*01>3_IGHJ4*01 G100K/G104T G24T/S28R/G35V (H:KT TRV) & V3-4_IGLJ1*01 M94E (Fab, V domains shown)
VH: B1 VH
VL: B1 VL with M94E
notes: as for B2
B21: Fab VH5-51_IGHD5-18*01>3_IGHJ4*01 G100K/G104T G24T/S28R/G35V (H:KT TRV) & V3-4_IGLJ1*01 V91A (Fab, V domains shown)
VH: B1 VH
VL: B1 VL with V91A
notes: as for B2

Molecular target: T1, Recombinant Human DLL4 (human, UniProt Q9NR61 27-524)
T1 construct: Bought recombinant human DLL4 (R&D Systems Cat#1506-D4/CF); also called delta-like protein 4; Delta-like 4
Assay: ELISA, DLL4 coated on the plate, Fab at 100 nM, signal minus blank

In order of rising “ELISA Signal-blank (100 nM Fab)” value:
1. B14  0.07
2. B17  0.078
3. B3  0.127
4. B13  0.152
5. B20  0.171
6. B18  0.197
7. B10  0.199
8. B9  0.203
9. B16  0.261
10. B5  0.315
11. B4  0.317
12. B15  0.318
13. B6  0.336
14. B2  0.382
15. B12  0.388
16. B1  0.393
17. B7  0.395
18. B21  0.529
19. B8  0.562
20. B11  0.625
21. B19  0.734
